Results from patent US20250283886A1.
Several values for one entry are separate records, joined by “and”; a condition that tells them apart may be missing. Identical values can stand only once. Like-named read-outs stand apart in the source and are kept apart here.

Tests used:
[1] = molecular target: … peptide containing N-terminal phenylalanine; assay: table of pulse statistics of the single-molecule recognition experiment
[2] = molecular target: … peptide containing N-terminal phenylalanine; assay: single-molecule recognition of immobilized peptide, 500 nM of each binder
[3] = molecular target: peptide having an N-terminal tryptophan residue; assay: single-molecule dwell time analysis, distribution of mean pulse durations, panel Trp; filtered 0.00s≤dur≤20.00s and magnitude above baseline > 15.0
[4] = molecular target: peptide having an N-terminal tyrosine residue; assay: single-molecule dwell time analysis, distribution of mean pulse durations, panel Tyr; filtered 0.00s≤dur≤20.00s and magnitude above baseline > 15.0
[5] = molecular target: polypeptides with a terminal leucine residue; assay: single-molecule dwell time analysis, distribution of mean pulse durations, panel Leu; filtered 0.00s≤dur≤20.00s and magnitude above baseline > 15.0
[6] = molecular target: peptide having an N-terminal phenylalanine residue; assay: single-molecule dwell time analysis, distribution of mean pulse durations, panel Phe; filtered 0.00s≤dur≤20.00s and magnitude above baseline > 15.0
[7] = molecular target: polypeptides with a terminal leucine residue
[8] = molecular target: polypeptides with a terminal leucine residue; assay: single-molecule dwell time analysis
[9] = molecular target: polypeptides with a terminal leucine residue; remark: listed apart in the source

B1: at ClpS1 (Agrobacterium tumifaciens ClpS1) labeled with Cy3, Q8UFN4 1-117 (protein)
chain: MIAEPICMQGEGDGEDGGTNRGTSVITRVKPKTKRPNLYRVLLLNDDYTPMEFVIHILERFFQKDREAATRIMLHVHQHGVGECGVFTYEVAETKVSQVMDFARQHQHPLQCVMEKK
With B1 the N pulses [1] was 98, the median pulse width [1] was 0.63 s and the mean pulse duration [2] was 1.3 s. For the same binder, the pulse rate [2] was 8.1 pulses/min.

B2: A. tumefaciens ClpS1 (protein)
chain: MIAEPICMQGEGDGEDGGTNRGTSVITRVKPKTKRPNLYRVLLLNDDYTPMEFVIHILERFFQKDREAATRIMLHVHQHGVGECGVFTYEVAETKVSQVMDFARQHQHPLQCVMEKK
With B2 the mean pulse duration (value at the dashed line) [3] was 0.34 s, the mean pulse duration (value at the dashed line) [4] was 0.69 s and the mean pulse duration (value at the dashed line) [5] was 0.31 s. The mean pulse duration (value at the dashed line) [6] was 0.59 s.

B3: ClpS from Thermosynochoccus elongatus (teClpS), labeled (protein)
chain: MPQERQQVTRKHYPNYKVIVLNDDFNTFQHVAACLMKYIPNMTSDRAWELTNQVHYEGQAIVWVGPQEQAELYHEQLLRAGLTMAPLEPE
For B3, the pulse duration M [7] was 0.43 s and 0.5 s, the pulse duration µ [7] was 0.68 s and 0.65 s and the mean pulse duration [8] was 0.71 s. The pulse duration M [9] was 0.46 s and 0.63 s, the pulse duration Mo [9] was 0.5 s and the pulse duration µ [9] was 0.74 s and 0.82 s.
